This data set is described as follows: self-splicing fitness, log relative to wild type (ln ratio); higher = more splicing; Tetrahymena group I intron in knt gene, E. coli kanamycin selection, DiMSum; sequences stand for … in CUCUCU…GGAGGGAAAAGUUAUCAGGCAUGCACCUGGUAGCUAGUCUUUAAACCAAUAGAUUGCAUCGGUUUAAAAGGCAAGACCGUCAAAUUGCGGGAAAGGGGUCAACAGCCGUUCAGUACCAAGUCUCAGGGGAAACUUUGAGAUGGCCUUGCAAAGGGUAUGGUAAUAAGCUGACGGACAUGGUCCUAACCACGCAGCCAAGUCCUAAGUCAACAGAUCUUCUGUUGAUAUGGAUGCAGUUCACAGACUAAAUGUCGGUCGGGGAAGAUGUAUUCUUCUCAUAAGAUAUAGUCGGACCUCUCCUUAAUGGGAGCUAGCGGAUGAAGUGAUGCAACACUGGAGCCGCUGGGAACUAAUUUGUAUGCGAAAGUAUAUUGAUUAGUUUUGGAGUACUCGUGGUCG
Put shortly:
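Fitness was computed with DiMSum as the error-weighted combination of replicate fold changes, kanamycin versus none, each normalised to wild type. The library randomised all eight intron nucleotides of the P1ex region, with the intron placed in the knt kanamycin-resistance gene on pET-22b(+) in E. coli BL21(DE3). Six replicate transformations were grown overnight at 37°C or 30°C on LB agar with or without 25 μg/mL kanamycin, plus 100 μg/mL carbenicillin, 50 μM IPTG and 0.2% rhamnose. Pooled colonies were amplicon-sequenced on an Illumina HiSeq 2500.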

From the supplement of paper PMC7877785 come the findings set out here.

± gives the uncertainty stated by the source.

Take GUUCAGCAAUAUUACGAGCG: the “self-splicing fitness (ln)” value was -2.03 ± 0.13 (30 °C) and -1.31 ± 0.15 (37 °C).

Consider GCCCAGCAAUAUUACGGUCG, for which the “self-splicing fitness (ln)” value was -1.61 ± 0.083 (30 °C) and -1.31 ± 0.096 (37 °C).

As to CUCUAGCAAUAUUACGAACA, where the note is “37 °C”, the “self-splicing fitness (ln)” value was -2.98 ± 0.34.

Take ACCGAGCAAUAUUACGCUAC: the “self-splicing fitness (ln)” value is, setting by setting: (30 °C) -3.58 ± 0.19; (37 °C) -2.86 ± 0.24.

ACUUAGCAAUAUUACGCAAC: the “self-splicing fitness (ln)” value (30 °C) was -2.89 ± 0.19 and the “self-splicing fitness (ln)” value (37 °C) is -1.72 ± 0.17.

GUCAAGCAAUAUUACGAGUA: the “self-splicing fitness (ln)” value reads like this: (30 °C) -3.43 ± 0.19; (37 °C) -1.98 ± 0.15.

UUAGAGCAAUAUUACGUCAU: the “self-splicing fitness (ln)” value runs as follows: (30 °C) -3.46 ± 0.31; (37 °C) -2.25 ± 0.33.

As for GAUUAGCAAUAUUACGCCGC, the “self-splicing fitness (ln)” value (30 °C) was -3.47 ± 0.24 and the “self-splicing fitness (ln)” value (37 °C) is -2.28 ± 0.21.

As to UUUAAGCAAUAUUACGUACA, the “self-splicing fitness (ln)” value was -0.498 ± 0.12 (30 °C) and 0.0487 ± 0.14 (37 °C).

With UGACAGCAAUAUUACGGGGG, the “self-splicing fitness (ln)” value (30 °C) is -2.61 ± 0.19 and the “self-splicing fitness (ln)” value (37 °C) is -2.93 ± 0.2.

In the case of CAGAAGCAAUAUUACGGAUU, the “self-splicing fitness (ln)” value was -3.13 ± 0.12 (30 °C) and -2.47 ± 0.14 (37 °C).

As to GAAAAGCAAUAUUACGGGAU, the “self-splicing fitness (ln)” value reads like this: (30 °C) -2.18 ± 0.14; (37 °C) -1.26 ± 0.12.

Turning to UGCCAGCAAUAUUACGUGUU, the “self-splicing fitness (ln)” value is, setting by setting: (30 °C) -2.74 ± 0.1; (37 °C) -1.67 ± 0.075.

On to UGCAAGCAAUAUUACGUACC, for which the “self-splicing fitness (ln)” value was -2.18 ± 0.16 (30 °C) and -1.02 ± 0.23 (37 °C).

As for ACGUAGCAAUAUUACGUACA, the “self-splicing fitness (ln)” value is, setting by setting: (30 °C) -2.02 ± 0.25; (37 °C) -0.998 ± 0.22.

In the case of UACAAGCAAUAUUACGUGAG, the “self-splicing fitness (ln)” value is -3.54 ± 0.17 (30 °C) and -1.91 ± 0.14 (37 °C).

Regarding AGAAAGCAAUAUUACGUUAG, the “self-splicing fitness (ln)” value is -2.91 ± 0.19 (30 °C) and -2.69 ± 0.18 (37 °C).

Turning to GGCAAGCAAUAUUACGGGGU, the “self-splicing fitness (ln)” value (30 °C) is -2.5 ± 0.099 and the “self-splicing fitness (ln)” value (37 °C) is -0.776 ± 0.094.

With AUGGAGCAAUAUUACGGGCG, the “self-splicing fitness (ln)” value is, setting by setting: (30 °C) -3.21 ± 0.26; (37 °C) -2.63 ± 0.44.

Regarding CUAGAGCAAUAUUACGAGCA, the “self-splicing fitness (ln)” value (37 °C) was -3.27 ± 0.31.

With AUACAGCAAUAUUACGUAUG, the “self-splicing fitness (ln)” value reads like this: (30 °C) -2.42 ± 0.16; (37 °C) -2.52 ± 0.18.

Turning to GUAAAGCAAUAUUACGCCUG, the “self-splicing fitness (ln)” value is, setting by setting: (30 °C) -0.223 ± 0.15; (37 °C) 0.555 ± 0.17.

Consider AAGGAGCAAUAUUACGUCUC, for which, where the note is “30 °C”, the “self-splicing fitness (ln)” value was -2.84 ± 0.48.

Consider ACGAAGCAAUAUUACGAUUC, for which the “self-splicing fitness (ln)” value (37 °C) was -2.8 ± 0.33.

GACGAGCAAUAUUACGUCCC: where the note is “37 °C”, the “self-splicing fitness (ln)” value was -0.0984 ± 0.5.

GGAGAGCAAUAUUACGUUCC: where the note is “37 °C”, the “self-splicing fitness (ln)” value is -2 ± 0.28.

Consider GCUAAGCAAUAUUACGUGUA, for which the “self-splicing fitness (ln)” value (30 °C) is -1.29 ± 0.087 and the “self-splicing fitness (ln)” value (37 °C) is -0.0918 ± 0.088.

GACGAGCAAUAUUACGAUUU: the “self-splicing fitness (ln)” value was -0.943 ± 0.085 (30 °C) and -1.19 ± 0.098 (37 °C).

For the sequence GGCCAGCAAUAUUACGAGCC, the “self-splicing fitness (ln)” value by setting is: (30 °C) -2.63 ± 0.26; (37 °C) -2.72 ± 0.29.

Turning to ACACAGCAAUAUUACGCUCG, the “self-splicing fitness (ln)” value (30 °C) was -0.365 ± 0.064 and the “self-splicing fitness (ln)” value (37 °C) stood at 0.194 ± 0.085.

ACGAAGCAAUAUUACGGCUA: the “self-splicing fitness (ln)” value stood at 0.0742 ± 0.099 (30 °C) and 0.022 ± 0.11 (37 °C).

Regarding GAAGAGCAAUAUUACGACUU, the “self-splicing fitness (ln)” value is -0.765 ± 0.12 (30 °C) and 0.131 ± 0.14 (37 °C).

On to CUCCAGCAAUAUUACGCGCG, for which the “self-splicing fitness (ln)” value was -3.29 ± 0.17 (30 °C) and -0.928 ± 0.15 (37 °C).

In the case of AGGUAGCAAUAUUACGACUA, the “self-splicing fitness (ln)” value by setting is: (30 °C) -0.0242 ± 0.016; (37 °C) 0.141 ± 0.034.

As to UAACAGCAAUAUUACGAUGU, the “self-splicing fitness (ln)” value is -2.73 ± 0.13 (30 °C) and -2.08 ± 0.14 (37 °C).

On to UGACAGCAAUAUUACGUUGC, for which the “self-splicing fitness (ln)” value is -3.03 ± 0.2 (30 °C) and -2.89 ± 0.23 (37 °C).

For the sequence UUAAAGCAAUAUUACGUCGA, the “self-splicing fitness (ln)” value (30 °C) was 0.349 ± 0.082 and the “self-splicing fitness (ln)” value (37 °C) was determined as 0.262 ± 0.095.

CCCUAGCAAUAUUACGCUGA: the “self-splicing fitness (ln)” value is, setting by setting: (30 °C) -3.14 ± 0.23; (37 °C) -2.85 ± 0.38.

As to GCGUAGCAAUAUUACGUAUG, the “self-splicing fitness (ln)” value is, setting by setting: (30 °C) -2.96 ± 0.3; (37 °C) -2 ± 0.24.

As for AUCCAGCAAUAUUACGAAGC, the “self-splicing fitness (ln)” value is -2.53 ± 0.16 (30 °C) and -2.28 ± 0.23 (37 °C).

GGGGAGCAAUAUUACGAGGU: the “self-splicing fitness (ln)” value is -3.44 ± 0.22 (30 °C) and -1.82 ± 0.26 (37 °C).

For ACAGAGCAAUAUUACGGCAG, the “self-splicing fitness (ln)” value by setting is: (30 °C) -2.25 ± 0.14; (37 °C) -2.45 ± 0.22.

For CUAGAGCAAUAUUACGAGGA, the “self-splicing fitness (ln)” value is, setting by setting: (30 °C) -2.99 ± 0.2; (37 °C) -2.53 ± 0.28.

For the sequence ACCAAGCAAUAUUACGCCAU, the “self-splicing fitness (ln)” value reads like this: (30 °C) -0.983 ± 0.12; (37 °C) -1.56 ± 0.16.

CUUGAGCAAUAUUACGUUGU: the “self-splicing fitness (ln)” value by setting is: (30 °C) -3.73 ± 0.14; (37 °C) -2.94 ± 0.14.

Consider ACCAAGCAAUAUUACGGGCU, for which the “self-splicing fitness (ln)” value reads like this: (30 °C) -1.12 ± 0.058; (37 °C) -1.16 ± 0.083.

Consider AUCUAGCAAUAUUACGUUAC, for which the “self-splicing fitness (ln)” value was -1.99 ± 0.27 (30 °C) and -1.74 ± 0.34 (37 °C).

With CGACAGCAAUAUUACGUUUC, the “self-splicing fitness (ln)” value is, setting by setting: (30 °C) -3.98 ± 0.24; (37 °C) -2.23 ± 0.15.

In the case of GACAAGCAAUAUUACGAAAA, the “self-splicing fitness (ln)” value is -2.27 ± 0.24 (30 °C) and -2.22 ± 0.31 (37 °C).

Consider AUUGAGCAAUAUUACGGCCG, for which the “self-splicing fitness (ln)” value (30 °C) was -3.13 ± 0.26 and the “self-splicing fitness (ln)” value (37 °C) is -0.636 ± 0.18.

For CGAAAGCAAUAUUACGGUCC, the “self-splicing fitness (ln)” value (30 °C) was -0.283 ± 0.087 and the “self-splicing fitness (ln)” value (37 °C) is -0.129 ± 0.13.

CUAUAGCAAUAUUACGAGGG: the “self-splicing fitness (ln)” value was -3.08 ± 0.21 (30 °C) and -2.41 ± 0.27 (37 °C).

AGAUAGCAAUAUUACGGUCA: the “self-splicing fitness (ln)” value is -0.325 ± 0.08 (30 °C) and 0.317 ± 0.11 (37 °C).

As for CCGUAGCAAUAUUACGUGGA, the “self-splicing fitness (ln)” value was -3.1 ± 0.32 (30 °C) and -2.84 ± 0.21 (37 °C).

In the case of CAGAAGCAAUAUUACGGUCC, under “30 °C”, the “self-splicing fitness (ln)” value was -2.94 ± 0.33.

Turning to CGCAAGCAAUAUUACGCAAU, the “self-splicing fitness (ln)” value was -2.94 ± 0.21 (30 °C) and -2.14 ± 0.26 (37 °C).

As for GUCCAGCAAUAUUACGGCCU, the “self-splicing fitness (ln)” value is, setting by setting: (30 °C) -3.36 ± 0.2; (37 °C) -1.14 ± 0.13.

As to GUACAGCAAUAUUACGAGUU, the “self-splicing fitness (ln)” value runs as follows: (30 °C) -1.7 ± 0.094; (37 °C) -1.36 ± 0.12.

For the sequence GCACAGCAAUAUUACGUACA, the “self-splicing fitness (ln)” value by setting is: (30 °C) -2.07 ± 0.1; (37 °C) -0.994 ± 0.1.

Regarding ACCGAGCAAUAUUACGGAUG, the “self-splicing fitness (ln)” value by setting is: (30 °C) -2.12 ± 0.12; (37 °C) -1.85 ± 0.098.

Consider CACUAGCAAUAUUACGUGAU, for which the “self-splicing fitness (ln)” value reads like this: (30 °C) -3.32 ± 0.12; (37 °C) -3.21 ± 0.15.

Regarding GUUCAGCAAUAUUACGAGGA, the “self-splicing fitness (ln)” value (30 °C) was -3.54 ± 0.27 and the “self-splicing fitness (ln)” value (37 °C) was -2.18 ± 0.26.
